Residue numbers refer to the chain shown, from its start. Each block holds one binder with its values, some of them ahead of it.
What was measured:
[1] = target: T1, FcγRIa extracellular domain with C-terminal His tag (human, UniProt P12314 16-292); assay: SPR, antibody captured, FcgR analyte
T1 construct: also called FcgRIa; CD64; not shown: His tag at the C terminus

[2] = target: T2, FcγRIIa R type extracellular domain with C-terminal His tag (human, UniProt P12318 34-217); assay: SPR, antibody captured, FcgR analyte
T2 construct: extracellular domain; also called FcgRIIaR; not shown: His tag at the C terminus
T2 sequence (looked up): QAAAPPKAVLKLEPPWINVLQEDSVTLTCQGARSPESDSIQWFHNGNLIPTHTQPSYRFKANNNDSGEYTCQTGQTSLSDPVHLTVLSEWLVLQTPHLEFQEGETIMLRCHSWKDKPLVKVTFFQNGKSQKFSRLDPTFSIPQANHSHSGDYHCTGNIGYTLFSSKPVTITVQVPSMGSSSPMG

[3] = target: T3, FcγRIIb extracellular domain with C-terminal His tag (human, UniProt P31994 43-217); assay: SPR, antibody captured, FcgR analyte
T3 construct: extracellular domain; also called FcgRIIb; not shown: His tag at the C terminus
T3 sequence (looked up): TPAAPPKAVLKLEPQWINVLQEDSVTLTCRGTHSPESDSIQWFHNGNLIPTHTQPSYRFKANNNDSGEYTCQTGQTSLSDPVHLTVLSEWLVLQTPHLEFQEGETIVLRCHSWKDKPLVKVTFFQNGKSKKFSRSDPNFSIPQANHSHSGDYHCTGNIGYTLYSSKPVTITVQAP

[4] = target: T2, FcγRIIa R type extracellular domain …; assay: SPR; KD of IL6R-B3/IL6R-L divided by KD of variant
[5] = target: T3, FcγRIIb extracellular domain with …; assay: SPR; KD of IL6R-B3/IL6R-L divided by KD of variant
[6] = target: T4, FcγRIIa R type extracellular domain, His tag (human, UniProt P12318 34-217); assay: SPR, bound amount per captured antibody
T4 construct: extracellular domain; also called FcgRIIaR
T4 sequence (looked up): T2 sequence (looked up)

[7] = target: T5, FcγRIIb extracellular domain, His tag (human, UniProt P31994 43-217); assay: SPR, bound amount per captured antibody
T5 construct: extracellular domain; also called FcgRIIb
T5 sequence (looked up): T3 sequence (looked up)

[8] = target: T6, FcγRIa extracellular domain, His tag (human, UniProt P12314 16-292); assay: SPR, KD ratio
T6 construct: whole entry named; also called FcgRIa
T6 sequence (P12314 16-292): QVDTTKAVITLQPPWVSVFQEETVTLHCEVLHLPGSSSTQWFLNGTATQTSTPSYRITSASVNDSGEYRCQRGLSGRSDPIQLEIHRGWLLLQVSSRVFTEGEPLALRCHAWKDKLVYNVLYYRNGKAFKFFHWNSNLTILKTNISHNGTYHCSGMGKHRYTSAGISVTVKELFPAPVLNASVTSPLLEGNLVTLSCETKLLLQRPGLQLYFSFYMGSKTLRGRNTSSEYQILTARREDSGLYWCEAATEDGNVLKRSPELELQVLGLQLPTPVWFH

[9] = target: T7, FcγRIIIa V type extracellular domain, His tag (human, UniProt P08637 17-208); assay: SPR, KD ratio
T7 construct: extracellular domain; also called FcgRIIIaV
T7 sequence (P08637 17-208 F176V): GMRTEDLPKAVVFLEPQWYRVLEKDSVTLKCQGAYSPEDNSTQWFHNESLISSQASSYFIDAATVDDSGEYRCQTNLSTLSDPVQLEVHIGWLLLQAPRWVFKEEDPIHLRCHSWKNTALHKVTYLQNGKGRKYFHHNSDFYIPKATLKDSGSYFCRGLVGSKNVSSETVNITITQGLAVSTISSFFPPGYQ

[10] = target: T8, FcγRIIa H type extracellular domain, His tag (human, UniProt P12318 34-217); assay: SPR, KD ratio
T8 construct: extracellular domain; also called FcgRIIaH
T8 sequence (looked up): T2 sequence (looked up) with R134H

[11] = target: T4, FcγRIIa R type extracellular domain, …; assay: SPR, KD ratio
[12] = target: T5, FcγRIIb extracellular domain, His tag; assay: SPR, KD ratio

T1 sequence (P12314 16-292): as the sequence (P12314 16-292) above

Kd [1]: 0.79 nM
Kd [2]: 920 nM
Kd [3]: 24 nM
Relative FcgRIIaR-binding Activity [4]: 1.2
Relative FcgRIIb-binding Activity [5]: 131
B1: IL6R-BP492/IL6R-L (antibody, human IgG1, kappa, name in EU numbering)
heavy: QVQLQESGPGLVKPSETLSLTCAVSGHSISHDHAWSWVRQPPGEGLEWIGFISYSGITNYNPSLQGRVTISRDNSKNTLYLQMNSLRAEDTAVYYCARSLARTTAMDYWGEGTLVTVSSASTKGPSVFPLAPSSKSTSGGTAALGCLVKDYFPEPVTVSWNSGALTSGVHTFPAVLQSSGLYSLSSVVTVPSSSLGTQTYICNVNHKPSNTKVDKKVEPKSCDKTHTCPPCPAPELLGGDSVFLFPPKPKDTLMISRTPEVTCVVIDVAEEDGEVKFNWYVDGVEVHNAKTKPREEQYNSTYRVVSVLTVLHQDWLNGKEYKCKVSNKALPAPIEKTISKAKGQPREPQVYTLPPSRDELTKNQVSLTCLVKGFYPSDIAVEWESNGQPENNYKTTPPVLDSDGSFFLYSKLTVDKSRWQQGNVFSCSVMHEALHNHYTQESLSLSP
light: not shown
notes: human IgG1

Kd [1]: 0.19 nM
Kd [2]: 680 nM
Kd [3]: 15 nM
Relative FcgRIIaR-binding Activity [4]: 1.6
Relative FcgRIIb-binding Activity [5]: 210
B2: IL6R-BP568/IL6R-L (antibody, human IgG1, kappa, name in EU numbering)
heavy: B1 heavy with E235D
light: not shown
notes: human IgG1

Relative FcgRIIaR-binding Activity [6]: 13.5 % of IL6R-G1d/IL6R-L
Relative FcgRIIb-binding Activity [7]: 82 % of IL6R-G1d/IL6R-L
Relative FcgRIa-binding Activity [8]: 0.0384 fold of IL6R-G1d/IL6R-L
Relative FcgRIIIaV-binding Activity [9]: 0.008 fold of IL6R-G1d/IL6R-L
Relative FcgRIIaH-binding Activity [10]: 0.007 fold of IL6R-G1d/IL6R-L
Relative FcgRIIaR-binding Activity [11]: 0.021 fold of IL6R-G1d/IL6R-L
Relative FcgRIIb-binding Activity [12]: 0.977 fold of IL6R-G1d/IL6R-L
B3: IL6R-P605/IL6R-L (antibody, human IgG1, kappa)
heavy: B1 heavy with I266V, A269S, E270H, G273P, Y298D, S300A, E441K
light: not shown

Kd [1]: 3.9 nM
Kd [2]: 250 nM
Kd [3]: 6.6 nM
Relative FcgRIIaR-binding Activity [4]: 4.3
Relative FcgRIIb-binding Activity [5]: 470
B4: IL6R-BP494/IL6R-L (antibody, human IgG1, kappa, name in EU numbering)
heavy: B1 heavy with G239D, I266V, Y298D, A332R
light: not shown
notes: human IgG1

Kd [1]: 0.21 nM
Kd [2]: 890 nM
Kd [3]: 14 nM
Relative FcgRIIaR-binding Activity [4]: 1.2
Relative FcgRIIb-binding Activity [5]: 224
B5: IL6R-BP567/IL6R-L (antibody, human IgG1, kappa, name in EU numbering)
heavy: B1 heavy with E235D, Y298D
light: not shown
notes: human IgG1

Kd [1]: 1.1 nM
Kd [2]: 520 nM
Kd [3]: 18 nM
Relative FcgRIIaR-binding Activity [4]: 2.1
Relative FcgRIIb-binding Activity [5]: 174
B6: IL6R-BP509/IL6R-L (antibody, human IgG1, kappa, name in EU numbering)
heavy: B1 heavy with E235D, G239D, E274D, Y298D
light: not shown
notes: human IgG1

Kd [1]: 31 nM
Kd [2]: 580 nM
Kd [3]: 22 nM
Relative FcgRIIaR-binding Activity [4]: 1.9
Relative FcgRIIb-binding Activity [5]: 140
B7: IL6R-BP564/IL6R-L (antibody, human IgG1, kappa, name in EU numbering)
heavy: B1 heavy with G239D, I266V, A269S, E274D, Y298D, A332R
light: not shown
notes: human IgG1

Kd [1]: 2.3 nM
Kd [2]: 720 nM
Kd [3]: 24 nM
Relative FcgRIIaR-binding Activity [4]: 1.5
Relative FcgRIIb-binding Activity [5]: 128
B8: IL6R-BP500/IL6R-L (antibody, human IgG1, kappa, name in EU numbering)
heavy: B1 heavy with G239D, Y298D
light: not shown
notes: human IgG1

Kd [1]: 0.82 nM
Kd [2]: 780 nM
Kd [3]: 46 nM
Relative FcgRIIaR-binding Activity [4]: 1.4
Relative FcgRIIb-binding Activity [5]: 67.6
B9: IL6R-BP484/IL6R-L (antibody, human IgG1, kappa, name in EU numbering)
heavy: B1 heavy with E235D, G239D, I266V, E271D
light: not shown
notes: human IgG1

Relative FcgRIIaR-binding Activity [6]: 14.5 % of IL6R-G1d/IL6R-L
Relative FcgRIIb-binding Activity [7]: 116 % of IL6R-G1d/IL6R-L
Relative FcgRIa-binding Activity [8]: 0.0183 fold of IL6R-G1d/IL6R-L
Relative FcgRIIIaV-binding Activity [9]: 0.007 fold of IL6R-G1d/IL6R-L
Relative FcgRIIaH-binding Activity [10]: 0.009 fold of IL6R-G1d/IL6R-L
Relative FcgRIIaR-binding Activity [11]: 0.024 fold of IL6R-G1d/IL6R-L
Relative FcgRIIb-binding Activity [12]: 1.46 fold of IL6R-G1d/IL6R-L
B10: IL6R-P653/IL6R-L (antibody, human IgG1, kappa)
heavy: B1 heavy with F243M, I266V, A269S, E270P, G273P, Y298E, E441K
light: not shown

Relative FcgRIIaR-binding Activity [6]: 18.1 % of IL6R-G1d/IL6R-L
Relative FcgRIIb-binding Activity [7]: 112 % of IL6R-G1d/IL6R-L
Relative FcgRIa-binding Activity [8]: 0.0174 fold of IL6R-G1d/IL6R-L
Relative FcgRIIIaV-binding Activity [9]: 0.006 fold of IL6R-G1d/IL6R-L
Relative FcgRIIaH-binding Activity [10]: 0.01 fold of IL6R-G1d/IL6R-L
Relative FcgRIIaR-binding Activity [11]: 0.028 fold of IL6R-G1d/IL6R-L
Relative FcgRIIb-binding Activity [12]: 2.13 fold of IL6R-G1d/IL6R-L
B11: IL6R-P602/IL6R-L (antibody, human IgG1, kappa)
heavy: B1 heavy with F243M, I266V, A269S, E270H, G273P, Q297V, Y298E, E441K
light: not shown

From patent US20220411483A1 (Chugai, published 2022)
